This is an account of results in patent publication US20240417482A1 (CONCEPT TO MEDICINE BIOTECH, published 2024).

The target in assay [1] is human 4-1BB expressed on cells (human) (UniProt Q07011). In words: flow cytometry on HEK293-4-1BB cells, PE anti-human IgG, MFI.
The target of assay [2] is T1, human 4-1BB-His protein (human, UniProt Q07011 24-186).
T1 construct: Recombinant His-tagged protein; also called human 4-1BB-his tag; recombinant 4-1BB protein; not shown: His tag
In words: ELISA, plate coated with human 4-1BB-His at 0.5 ug/ml, anti-human IgG-HRP detection, OD450 (panel Human 4-1BB ELISA). On the technique in general: In an ELISA, binding on a coated surface is turned into a signal by an enzyme label.
Target sequence in this assay (Q07011 24-186 limits assumed): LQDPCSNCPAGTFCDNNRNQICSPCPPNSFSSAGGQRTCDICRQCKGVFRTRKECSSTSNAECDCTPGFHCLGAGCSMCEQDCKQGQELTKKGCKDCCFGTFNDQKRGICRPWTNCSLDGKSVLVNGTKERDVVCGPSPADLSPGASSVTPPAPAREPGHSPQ

In assay [3] the target is T2, human CD40 protein (human, UniProt P25942 21-193).
T2 construct: Coated protein in ELISA
T2 sequence (P25942 21-193 limits assumed): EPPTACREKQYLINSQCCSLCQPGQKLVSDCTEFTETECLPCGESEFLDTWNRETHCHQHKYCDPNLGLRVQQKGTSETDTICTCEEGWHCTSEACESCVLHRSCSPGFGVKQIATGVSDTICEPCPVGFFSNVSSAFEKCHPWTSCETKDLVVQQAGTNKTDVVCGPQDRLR
In words: ELISA, plate coated with human CD40 0.5 µg/ml. Here is the method: (§1) Briefly, microtiter plates were coated with human CD40 protein or human OX40 protein at 0.5 μg/ml in PBS, 100 μl/well at 4° C. overnight, then blocked with 150 μl/well of 1% BSA. […] The plates were washed with PBS/Tween and then incubated with Anti-Human IgG (H&L) (GOAT) Antibody Peroxidase Conjugated for 30 mins at 37° C. After washing, the plates were developed with TMB substrate and analyzed by spectrophotometer at OD 450 nm.

In assay [4] the target is T3, human OX40 protein (human, UniProt P43489 29-214, limits assumed).
T3 construct: Coated protein in ELISA
T3 sequence (looked up): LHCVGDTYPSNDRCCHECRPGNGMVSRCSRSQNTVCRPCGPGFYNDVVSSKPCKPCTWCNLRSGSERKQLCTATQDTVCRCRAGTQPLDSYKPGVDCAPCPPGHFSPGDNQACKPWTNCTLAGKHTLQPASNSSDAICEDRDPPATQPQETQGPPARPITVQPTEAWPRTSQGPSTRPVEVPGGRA
In words: ELISA, plate coated with human OX40 0.5 µg/ml. As for the experimental part:
as §1

Assay [5] addresses T4, mouse 4-1BB-His protein (mouse, UniProt P20334 24-187).
T4 construct: Recombinant His-tagged protein; also called mouse 4-1BB antigen; not shown: His tag
T4 sequence (looked up): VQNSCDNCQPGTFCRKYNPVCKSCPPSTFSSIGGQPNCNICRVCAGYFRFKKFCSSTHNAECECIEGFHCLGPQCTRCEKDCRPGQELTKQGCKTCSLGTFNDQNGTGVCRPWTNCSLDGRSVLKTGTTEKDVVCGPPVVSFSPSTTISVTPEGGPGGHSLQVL
In words: ELISA, plate coated with mouse 4-1BB-His 0.5 µg/ml. As for the experimental part: Microtiter plates were coated with mouse 4-1BB-His protein at 0.5 μg/ml in PBS, 100 μl/well at 4° C. overnight, then blocked with 150 μl/well of 1% BSA. […] The plates were washed with PBS/Tween and then incubated with Anti-Human IgG (H&L) (GOAT) Antibody Peroxidase Conjugated for 30 mins at 37° C. After washing, the plates were developed with TMB substrate and analyzed by spectrophotometer at OD 450 nm.

Assay [6] concerns the target T1, human 4-1BB-His protein. In words: ELISA, plate coated with human 4-1BB-His, anti-human IgG-HRP. Here is the method: Briefly, microtiter plates were coated with human 4-1BB-His protein at 0.5 μg/ml in PBS, 100 μl/well at 4° C. overnight, then blocked with 150 μl/well of 1% BSA. […] The plates were washed with PBS/Tween and then incubated with Anti-Human IgG (H&L) (GOAT) Antibody Peroxidase Conjugated for 30 mins at 37° C. After washing, the plates were developed with TMB substrate and analyzed by spectrophotometer at OD 450 nm.

The target of assay [7] is T5, cynomolgus 4-1BB-His protein (cynomolgus, UniProt A9YYE7 24-186).
T5 construct: Recombinant His-tagged protein; also called cyno 4-1BB antigen; not shown: His tag
T5 sequence: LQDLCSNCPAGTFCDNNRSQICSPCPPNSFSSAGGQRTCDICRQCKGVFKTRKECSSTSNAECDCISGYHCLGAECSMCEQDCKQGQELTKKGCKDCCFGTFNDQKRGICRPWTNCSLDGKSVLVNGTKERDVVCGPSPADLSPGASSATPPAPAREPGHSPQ
In words: ELISA, plate coated with cynomolgus 4-1BB-His, anti-human IgG-HRP. Here is the method: Microtiter plates were coated with cynomolgus 4-1BB-His protein at 0.5 μg/ml in PBS, 100 μl/well at 4° C. overnight, then blocked with 150 μl/well of 1% BSA. […] The plates were washed with PBS/Tween and then incubated with Anti-Human IgG (H&L) (GOAT) Antibody Peroxidase Conjugated for 30 mins at 37° C. After washing, the plates were developed with TMB substrate and analyzed by spectrophotometer at OD 450 nm.

Assay [8] concerns the target T1, human 4-1BB-His protein. In words: SPR, Biacore T200, antibody captured on Protein A chip, human 4-1BB-His as analyte. As for the experimental part:
A serial dilution of human 4-1BB-his tag protein was injected over captured antibody for 30 s at a flow rate of 30 μl/min. The antigen was allowed to dissociate for 360 s. All the experiments were carried out on a Biacore T200. Data analysis was carried out using the Biacore T200 evaluation software.
Background: SPR reads the build-up and loss of mass on a sensor chip optically.

Sequence of human 4-1BB expressed on cells (human) (Q07011 24-255): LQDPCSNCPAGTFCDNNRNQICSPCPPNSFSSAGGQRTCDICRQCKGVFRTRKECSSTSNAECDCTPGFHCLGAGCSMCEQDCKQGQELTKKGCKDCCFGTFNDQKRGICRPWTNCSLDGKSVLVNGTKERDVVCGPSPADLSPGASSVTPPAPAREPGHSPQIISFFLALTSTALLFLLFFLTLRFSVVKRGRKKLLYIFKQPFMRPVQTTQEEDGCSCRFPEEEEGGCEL

Take Urelumab (antibody): the EC50 (read off the curve) (as a rule, the concentration at which the effect is half-maximal) in assay [1] was determined as 2 nM; in assay [2], 10 ng/mL.

B1: B31 chimeric mAb (VHH)
VHH: QVQLVESGGGLVQAGGSLRLSCAASGDIFSIMFWYRQPQGKQREYVAHITSNGRTNYADSVTGRFTISRGNNDNTMYLQMDNLKPQDTAVYYCAADDATNTRTYWGQGTQVTVSS
notes: Alpaca VHH tested as 'chimeric mAb' expressed in 293F cells, purified by protein G, detected with anti-human IgG and captured on Protein A; also called B31 chimeric antibody
Turning to B1, the binding result in assay [3], in assay [4] and in assay [5] was “no binding” each time. For the same molecule, in assay [1], the half-maximal effective concentration (EC50 (read off the curve)) is 3 nM. The EC50 – broadly, the concentration at which the effect is half-maximal – was 2.42 ng/mL in assay [6] and 4.06 ng/mL in assay [7]. Further, binding in assay [8] was put at a Kd of 3.16 nM. The koff – broadly, the rate constant with which the complex falls apart – in assay [8] was found to be 0.0048 s⁻¹. In addition, the kon (as a rule, a measure of how fast the partners come together) in assay [8] stood at 1.52e+06 M⁻¹ s⁻¹.
